Data published in PMC5485662 (Nature medicine, 2016).

B1: Fab of antibody D1 H1–2 (donor 1, 2011–12 cohort) (Fab, V domains shown)
VH: QVQLQESGPGLVKPSETLSLRCAVSGSSISSLFYWGWIRQPPGKGPEWIGSIYHSGSTYYNPSLKSRVTISVDASKTQFSLNLNSVTAADTAVYYCAREYRILDERSNYFDAWGQGSPVTVSS
VL: SYELTQPPSVSVSPGQTVSITCSGDKMGDKYASWYQQKPGQSPFLVIYQDNKRPSGIPERFSGSNSGNTATLTISGTQAMDEADYYCQTWDISSGVVFGGGTKL
B2: Fab of inferred intermediate I-2 of lineage CL6515 (Fab, V domains shown)
VH: EVQLVQSGAEVKKPGESLKISCKGSGYSFTSYWIGWVRQMPGKGLEWMGIIYPGDSDTRYSPSFQGQVTISADKSISTAYLQWSSLKASDTAMYYCARVVADREGFGYYYGMDVWGQGTTVTVSS
VL: EIVLTQSPGTLSLSPGERATLSCRASQSVDSSSLAWYQQKPGQAPRLLIYAASSRATGIPDRFSGSGSGTDFTLTISRLEPEDFAVYYCQQCGSSPWTFGQGTKVEIK
B3:  (Fab, V domains shown)
VH: EVQLVQSGAEVKKPGESLKISCKGSGYSFTSYWIGWVRQMPGKGLEWMGIIYPGDSDTRYSPSFQGQVTISADKSISTAYLQWSSLKASDTAMYYCARVVADREGFGYYYGMDVWGQGTTVTVSS
VL: not shown
B4: Fab of antibody D1 H1–12 (donor 1, 2011–12 cohort) (Fab, V domains shown)
VH: QVQLQESGPGLVKPSETLSLTCSVSGGSLNTYYWSWIRQPPGKGLEWIGYIYYSGNTNYNPSLKSRVAISVDTSKNQFSLKLTSVTAADTAVYYCARLYMVRGELWGFYFDHWGQGTLVTVSS
VL: QSVLTQPASVSGSPGQSITISCTGTSSDVGSYNLVSWYQHHPGKAPKLMIYEDIERPSGVSNRFSGSKSGNTASLTISGLQAEDEGDYYCCSYAGSSTSWVFGGGTKLTVL
B5: Fab of antibody D1 H1–53 (donor 1, 2011–12 cohort) (Fab, V domains shown)
VH: QVQLQESGPGLVKPSETLSLTCTVSGGSITNYFWSWIRQPPGKGLEWIGYISYSGSTNHNPSLKSRVTMSLDTSKKQFSLKLSSVTAADMAVYFCARGERFGESPYYSYHMDVWGQGTTVTVSS
VL: not shown

Legend:
[1] = biological target: HA ectodomain of wild-type A/California/07/2009 (pdm2009) (Influenza A virus A/California/07/2009 …); experiment: BLI
[2] = biological target: T1, HA of A/USSR/92/1977 (Influenza A virus A/USSR/92/1977 …, UniProt P03453, strain); experiment: BLI
[3] = biological target: T1, HA of A/USSR/92/1977; experiment: cell-based or functional assay

Binder	Kd [1] [µM]	Kd [2] [µM]	IC50 of neutralisation (microneutralization, MDCK cells) of A/USSR/92/1977 virus [3] [µg/mL]
B1	> 100		
B2		1.9	0.012
B3	> 50		
B4	> 100		
B5	> 100		
